# Experimental data taken from publication PMC5131957.
# Target: p53CD (core domain) (human) (UniProt P04637)
# Assay: ELISA
# Details: EMSA: 5 mM Tris-HCl pH 8, 1 mM MgCl2, 0.01% Triton X-100, 50 mM KCl, on ice or 25 C, 30 min, pBSK/SmaI competitor 5-50 ng; ELISA: 1x PBS, 2 mM MgCl2 …
# p53CD (core domain) (human), sequence (P04637 94-312): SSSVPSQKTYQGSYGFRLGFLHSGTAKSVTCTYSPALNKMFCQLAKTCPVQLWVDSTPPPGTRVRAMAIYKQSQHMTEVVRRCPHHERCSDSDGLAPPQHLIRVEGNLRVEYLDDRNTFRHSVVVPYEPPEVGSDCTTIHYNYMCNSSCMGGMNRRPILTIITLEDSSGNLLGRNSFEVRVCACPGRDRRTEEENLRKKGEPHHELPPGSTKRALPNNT
sequence,measurement,value
"TTTTTTTTTTTTTTTTTTTTTTTTTTTTTTTTTTTTTTTTTTTTTTTTTT / AAAAAAAAAAAAAAAAAAAAAAAAAAAAAAAAAAAAAAAAAAAAAAAAAA / TTTTTTTTTTTTTTTTTTTTTTTTTTTTTTTTTTTTTTTTTTTTTTTTTT [T.A.T triplex, biotinylated]",Kd,16.8 nM
